Data published in US20170137818, “APTAMER INHIBITING BIOLOGICAL ACTIVITY OF AUTOTAXIN BY BINDING WITH AUTOTAXIN, AND USE THEREOF” (RIBOMIC INC., published 2017).

B1: 12(67) (ssDNA)
DNA: CCTGGACGGAACCAGAATACTTTTGGTCTCCAGG
modifications: 2'-OMe C7,G9,A14,G15,A19,C20,A32,G33,G34; 5' 40 kDa PEG (GL4-400TS) via ssH linker; 3' idT
B2: 12(66) (ssDNA)
DNA: B1 DNA
modifications: 2'-OMe C7,G9,A14,G15,A19,C20,A32,G33,G34; 5' 40 kDa PEG (GL2-400TS) via ssH linker; 3' idT
B3: 12(117) (ssDNA)
DNA: B1 DNA
modifications: 2'-OMe C7,G9,A14,G15,A19,C20,A32,G33,G34; PS after G8; 5' 40 kDa PEG (GL2-400GS2) via ssH linker; 3' idT

target: autotaxin (ENPP2/NPP2) (Homo sapiens, UniProt Q13822 Q13822:36-863); experiment: inhibition; LPA production, 0.10 uM aptamer, ~92% serum, 37C 3 h

Binder	activity [% inhibition]
CCTGGACGGAACCAGAATACTTTTGGTCTCCAGG (ssDNA, 2'-OMe C7,G9,A14,G15,A19,C20,A32,G33,G34; P-methyl C2; idT 5' and 3') [12(58)]	69
CCTGGACGGAACCAGAATACTTTTGGTCTCCAGG (ssDNA, 2'-OMe C7,G9,A14,G15,A19,C20,U21,A32,G33,G34; idT 5' and 3') [12(74)]	31
CCTGGACGGAACCAGAATACTTTTGGTCTCCAGG (ssDNA, 2'-OMe C7,G9,A14,G15,A19,C20,A32,G33,G34; P-methyl T18; idT 5' and 3') [12(60)]	50
CCTGGACGGAACCAGAATACTTTTGGTCTCCAGG (ssDNA, 2'-OMe C7,G9,A14,G15,A19,C20,A32,G33,G34; PS after T29; idT 5' and 3') [12(112)]	69
CCTGGACGGAACCAGAATACTTTTGGTCTCCAGG (ssDNA, 2'-OMe U3,C7,G9,A14,G15,A19,C20,A32,G33,G34; idT 5' and 3') [12(68)]	53
CCTGGACGGAACCAGAATACTTTTGGTCTCCAGG (ssDNA, 2'-OMe C7,G9,A14,G15,A19,C20,A32,G33,G34; P-methyl C30; idT 5' and 3') [12(127)]	79
B1	74
CCTGGACGGAACCAGAATACTTTTGGTCTCCAGG (ssDNA, 2'-OMe C7,G9,A14,A19,C20,A32,G33,G34; P-methyl G15; idT 5' and 3') [12(64)]	63
CCTGGACGGAACCAGAATACTTTTGGTCTCCAGG (ssDNA, 2'-OMe C7,G9,A14,G15,A19,C20,A32,G33,G34; P-methyl G5; idT 5' and 3') [12(128)]	78
CCTGGACGGAACCAGAATACTTTTGGTCTCCAGG (ssDNA, 2'-OMe C7,G9,A14,G15,U18,A19,C20,A32,G33,G34; idT 5' and 3') [12(75)]	65
CCTGGACGGAACCAGAATACTTTTGGTCTCCAGG (ssDNA, 2'-OMe C7,G9,A14,G15,A19,C20,A32,G33,G34; PS after A16; idT 5' and 3') [12(99)]	81
CCTGGACGGAACCAGAATACTTTTGGTCTCCAGG (ssDNA, 2'-OMe C7,G9,A14,G15,A19,C20,A32,G33,G34; PS after G33; idT 5' and 3') [12(116)]	72
CCTGGACGGAACCAGAATACTTTTGGTCTCCAGG (ssDNA, 2'-OMe C7,G9,A14,G15,A19,C20,A32,G33,G34; PS after C12; idT 5' and 3') [12(80)]	85
CCTGGACGGAACCAGAATACTTTTGGTCTCCAGG (ssDNA, 2'-OMe C7,G9,A14,G15,A19,C20,A32,G33,G34; PS after C30; idT 5' and 3') [12(113)]	66
CCTGGACGGAACCAGAATACTTTTGGTCTCCAGG (ssDNA, 2'-OMe C7,G9,A14,G15,A19,C20,A32,G33,G34; PS after C31; idT 5' and 3') [12(114)]	75
CCTGGACGGAACCAGAATACTTTTGGTCTCCAGG (ssDNA, 2'-OMe C7,G9,A14,G15,A19,C20,A32,G33,G34; PS after G25; idT 5' and 3') [12(83)]	54
CCTGGACGGAACCAGAATACTTTTGGTCTCCAGG (ssDNA, 2'-OMe C7,G9,A14,G15,A19,C20,A32,G33,G34; PS after A6; idT 5' and 3') [12(76)]	67
CCTGGACGGAACCAGAATACTTTTGGTCTCCAGG (ssDNA, 2'-OMe C7,G9,A14,G15,A19,C20,A32,G33,G34; PS after A32; idT 5' and 3') [12(115)]	77
CCTGGACGGAACCAGAATACTTTTGGTCTCCAGG (ssDNA, 2'-OMe C7,G9,A14,G15,A19,C20,A32,G33,G34; PS after T3; idT 5' and 3') [12(109)]	68
CCTGGACGGAACCAGAATACTTTTGGTCTCCAGG (ssDNA, 2'-OMe C7,G9,A14,G15,A19,C20,A32,G33,G34; PS after T24; idT 5' and 3') [12(82)]	51

Binder	activity [% inhibition]
CCTGGACGGAACCAGAATACTTTTGGTCTCCAGG (ssDNA, 2'-OMe C7,G9,A14,G15,A19,C20,A32,G33,G34; PS after C2; idT 5' and 3') [12(108)]	68
CCTGGACGGAACCAGAATACTTTTGGTCTCCAGG (ssDNA, 2'-OMe C7,G9,A14,G15,A19,C20,A32,G33,G34; P-methyl T21; idT 5' and 3') [12(123)]	74
CCTGGACGGAACCAGAATACTTTTGGTCTCCAGG (ssDNA, 2'-OMe C7,G9,A14,G15,A19,C20,A32,G33,G34; P-methyl T23; idT 5' and 3') [12(121)]	80
CCTGGACGGAACCAGAATACTTTTGGTCTCCAGG (ssDNA, 2'-OMe C7,G9,A14,G15,A19,C20,A32,G33,G34; PS after T21; idT 5' and 3') [12(103)]	88
CCTGGACGGAACCAGAATACTTTTGGTCTCCAGG (ssDNA, 2'-OMe C7,G9,A14,G15,A19,A32,G33,G34; P-methyl C20; idT 5' and 3') [12(65)]	57
CCTGGACGGAACCAGAATACTTTTGGTCTCCAGG (ssDNA, 2'-OMe C7,G9,A14,G15,A19,C20,A32,G33,G34; PS after G15; idT 5' and 3') [12(98)]	76
CCTGGACGGAACCAGAATACTTTTGGTCTCCAGG (ssDNA, 2'-OMe C7,G9,A14,G15,A19,C20,A32,G33,G34; PS after G5; idT 5' and 3') [12(111)]	60
CCTGGACGGAACCAGAATACTTTTGGTCTCCAGG (ssDNA, 2'-OMe C7,G9,A14,G15,A19,C20,A32,G33,G34; P-methyl G26; idT 5' and 3') [12(89)]	48
CCTGGACGGAACCAGAATACTTTTGGTCTCCAGG (ssDNA, 2'-OMe C7,G9,A14,G15,A19,C20,A32,G33,G34; PS after T22; idT 5' and 3') [12(104)]	74
CCTGGACGGAACCAGAATACTTTTGGTCTCCAGG (ssDNA, 2'-OMe C7,G9,A14,G15,A19,C20,A32,G33,G34; P-methyl T22; idT 5' and 3') [12(122)]	65
CCTGGACGGAACCAGAATACTTTTGGTCTCCAGG (ssDNA, 2'-OMe C7,G9,A14,G15,A19,C20,U22,A32,G33,G34; idT 5' and 3') [12(73)]	11
CCTGGACGGAACCAGAATACTTTTGGTCTCCAGG (ssDNA, 2'-OMe C7,G9,A14,G15,A19,C20,A32,G33,G34; P-methyl A6; idT 5' and 3') [12(95)]	64
B2	77
CCTGGACGGAACCAGAATACTTTTGGTCTCCAGG (ssDNA, 2'-OMe C7,G9,A14,G15,A19,C20,A32,G33,G34; PS after A10; idT 5' and 3') [12(78)]	62
CCTGGACGGAACCAGAATACTTTTGGTCTCCAGG (ssDNA, 2'-OMe C7,G9,A14,G15,A19,C20,A32,G33,G34; PS after T23; idT 5' and 3') [12(87)]	70
CCTGGACGGAACCAGAATACTTTTGGTCTCCAGG (ssDNA, 2'-OMe C7,G9,A14,G15,A19,C20,A32,G33,G34; PS after C1; idT 5' and 3') [12(107)]	75
CCTGGACGGAACCAGAATACTTTTGGTCTCCAGG (ssDNA, 2'-OMe C7,G9,A14,G15,A19,C20,A32,G33,G34; P-methyl G4; idT 5' and 3') [12(59)]	71
CCTGGACGGAACCAGAATACTTTTGGTCTCCAGG (ssDNA, 2'-OMe C7,G9,A14,G15,A19,C20,U23,A32,G33,G34; idT 5' and 3') [12(70)]	9
CCTGGACGGAACCAGAATACTTTTGGTCTCCAGG (ssDNA, 2'-OMe C7,G9,A14,G15,A19,C20,A32,G33,G34; P-methyl A16; idT 5' and 3') [12(124)]	76
CCTGGACGGAACCAGAATACTTTTGGTCTCCAGG (ssDNA, 2'-OMe C7,G9,A14,G15,A19,C20,A32,G33,G34; PS after T27; idT 5' and 3') [12(85)]	68

Binder	activity [% inhibition]
CCTGGACGGAACCAGAATACTTTTGGTCTCCAGG (ssDNA, 2'-OMe C7,G9,A14,G15,A19,C20,G33,G34; P-methyl A32; idT 5' and 3') [12(63)]	59
CCTGGACGGAACCAGAATACTTTTGGTCTCCAGG (ssDNA, 2'-OMe C7,G9,A14,G15,A19,C20,A32,G33,G34; PS after G4; idT 5' and 3') [12(110)]	63
CCTGGACGGAACCAGAATACTTTTGGTCTCCAGG (ssDNA, 2'-OMe C7,G9,A14,G15,A19,C20,A32,G33,G34; PS after C13; idT 5' and 3') [12(81)]	70
CCTGGACGGAACCAGAATACTTTTGGTCTCCAGG (ssDNA, 2'-OMe C7,G9,A14,G15,A19,C20,A32,G33,G34; PS after C20; idT 5' and 3') [12(102)]	72
CCTGGACGGAACCAGAATACTTTTGGTCTCCAGG (ssDNA, 2'-OMe C7,G9,A14,G15,A19,C20,A32,G33,G34; P-methyl C13; idT 5' and 3') [12(91)]	58
CCTGGACGGAACCAGAATACTTTTGGTCTCCAGG (ssDNA, 2'-OMe C7,G9,A14,G15,A19,C20,A32,G33,G34; P-methyl G25; idT 5' and 3') [12(90)]	63
CCTGGACGGAACCAGAATACTTTTGGTCTCCAGG (ssDNA, 2'-OMe C7,G9,A14,G15,A19,C20,A32,G33,G34; P-methyl T29; idT 5' and 3') [12(96)]	76
CCTGGACGGAACCAGAATACTTTTGGTCTCCAGG (ssDNA, 2'-OMe C7,G9,A14,G15,A19,C20,A32,G33,G34; P-methyl A17; idT 5' and 3') [12(125)]	78
CCTGGACGGAACCAGAATACTTTTGGTCTCCAGG (ssDNA, 2'-OMe C7,G9,A14,G15,A19,C20,A32,G33,G34; PS after T18; idT 5' and 3') [12(101)]	81
CCTGGACGGAACCAGAATACTTTTGGTCTCCAGG (ssDNA, 2'-OMe C7,G9,A14,G15,A19,C20,A32,G33,G34; PS after A17; idT 5' and 3') [12(100)]	80
CCTGGACGGAACCAGAATACTTTTGGTCTCCAGG (ssDNA, 2'-OMe C7,G9,A14,G15,A19,C20,A32,G33,G34; P-methyl C31; idT 5' and 3') [12(126)]	77
CCTGGACGGAACCAGAATACTTTTGGTCTCCAGG (ssDNA, 2'-OMe C7,G9,A14,G15,A19,C20,U29,A32,G33,G34; idT 5' and 3') [12(71)]	31
CCTGGACGGAACCAGAATACTTTTGGTCTCCAGG (ssDNA, 2'-OMe C7,G9,A14,G15,A19,C20,A32,G33,G34; P-methyl C28; idT 5' and 3') [12(62)]	75
CCTGGACGGAACCAGAATACTTTTGGTCTCCAGG (ssDNA, 2'-OMe C7,G9,A14,G15,A19,C20,A32,G33,G34; P-methyl T24; idT 5' and 3') [12(120)]	67
CCTGGACGGAACCAGAATACTTTTGGTCTCCAGG (ssDNA, 2'-OMe C7,G9,A14,G15,A19,C20,A32,G33,G34; PS after C28; idT 5' and 3') [12(86)]	57
CCTGGACGGAACCAGAATACTTTTGGTCTCCAGG (ssDNA, 2'-OMe C7,G9,A14,G15,A19,C20,A32,G33,G34; PS after C7; idT 5' and 3') [12(106)]	68
CCTGGACGGAACCAGAATACTTTTGGTCTCCAGG (ssDNA, 2'-OMe C7,G9,A14,G15,A19,C20,A32,G33,G34; PS after A11; idT 5' and 3') [12(79)]	37
B3	90
